Measurements published in US20220267462A1 (HARPOON THERAPEUTICS, published 2022).
Positions count from the first letter of the chain named.

T1: cynomolgus EpCAM protein (cynomolgus, UniProt Q1WER1 27-265 (rhesus entry), limits assumed, biotinylated in the Octet assays (site not stated))
T1 construct: also called cy EpCAM; biotinylated cynomolgus EpCAM protein
T1 sequence: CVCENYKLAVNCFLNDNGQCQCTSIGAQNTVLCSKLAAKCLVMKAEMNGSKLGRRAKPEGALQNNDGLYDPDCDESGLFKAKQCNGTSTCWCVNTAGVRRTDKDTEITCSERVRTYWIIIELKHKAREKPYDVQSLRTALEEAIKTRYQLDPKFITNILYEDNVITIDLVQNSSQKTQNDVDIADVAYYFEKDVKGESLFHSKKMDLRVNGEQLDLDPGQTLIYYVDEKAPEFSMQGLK

T2: human EpCAM protein (human, UniProt P16422 24-265, biotinylated in the Octet assays (site not stated))
T2 construct: also called hu EpCAM; biotinylated human EpCAM protein
T2 sequence: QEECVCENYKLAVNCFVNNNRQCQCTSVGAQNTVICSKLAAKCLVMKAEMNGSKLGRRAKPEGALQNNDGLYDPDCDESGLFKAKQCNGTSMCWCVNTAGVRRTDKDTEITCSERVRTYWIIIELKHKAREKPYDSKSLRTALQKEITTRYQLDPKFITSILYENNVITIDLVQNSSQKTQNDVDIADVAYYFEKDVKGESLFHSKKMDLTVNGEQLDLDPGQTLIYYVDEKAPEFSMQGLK

B1: EPL2 (VHH)
VHH: QVQLQESGGGLVQPGGSLRLSCAASESISSFIAVGWYRQAPGKERELVAGINRSGFTYYTDSVKGRFSISRDNAKNTVLLQMTSLKPEDTAVYYCNAGGLYFSNAYTQGDYWGQGTQVTVSS
B2: EPL43 (VHH)
VHH: B1 VHH with P14T
B3: EPL82 (VHH)
VHH: QVQLQESGGGLVQAGGSLKLSCTASGTILSTMAWYRQAPGKQRELVATISRGGTTNYSDSVKGRFAISRDSTKNTVYLQMNSLKPEDTAVYYCNTPLTDYGMGYNWGQGTQVTVSS
B4: EPL127 (VHH)
VHH: QVQLQESGGGLVQAGGSLRLSCAAPGFAFNDHAILWFRQAPGKEREGVSEICRDGTTYYTDSVKGRFTISSDNAKNTVYLQMNSVKTDDTAVYYCAVDRRRYYCSGNRAFSSDYYYWGQGTQVTVSS
B5: EPL126 (VHH)
VHH: QVQLQESGGGLVQAGGSLRLSCAASGFIFRAASMGWYRQSPGNERELVATINSGGFTNYADSVKGRFTISRDNAKNTGYLQMNSLKPEDTAVYFCAATFLRSDGQPPIWGQGTQVTVSS
B6: EPL118 (VHH)
VHH: QVQLQESGGGLVQAGGSLRLSCAASGFIFRAASMGWFRQSPGNERELVATVSSGDFTNYADSVKGRFTISRDNAKNTVYLQMNSLKPEDTAVYFCGATFVRSDGHHTIYGQGTQVTVSS
B7: EPL120 (VHH)
VHH: B5 VHH with M34I, G35S, K64L
B8: EPL90 (VHH)
VHH: B6 VHH with G35A, F37Y, T50S, V51I, D55A, G65A, V100L, Y109N
notes: llama anti-EpCAM heavy chain only single domain antibody; tested as E. coli periplasmic extract
B9: EPL164 (VHH)
VHH: QVQLQESGGGLVQAGGSLRLSCAASGFIFRAASMDWYRQSPGTQPELVATISSTGFTNYANSVKGRFTISRDNAKNTVYLQMNSLKPEDTAVYFCGATFLRSDGQHSIYGQGTQVTVSS
B10: EPL20 (VHH)
VHH: QVQLQESGGGLVQAGGSLKLSCAASGNVFRAATMAWYRQAPEKQREMVATIASGGTTNYADFVKGRFTISRDNAKNTVYLQMNTLKPEDTAVYYCNAGYLTSLGPKNYWGQGTQVTVSS
B11: EPL189 (VHH)
VHH: QVQLQESGGGLVQPGGSLRLSCAASGRINSINTMGWYRQAPGNQRELVAEITRGGTTNYADSVQGRYAISRDNAKNLVYLQMNSLKPEDTDVYYCNAQTFPTFSRPTGLDYWGQGTQVTVSS
B12: EPL49 (VHH)
VHH: QVQLQESGGGLVQAGGSLRLSCAPSGRTSSIFGMGWFRQAPGKEREFVASINWSGGSTSYADSVKGRFTISRDNAKNEMYLQMNSLKFEDTAVYVCAAAVLTNKPSWNFWGQGTQVTVSS
B13: EPL78 (VHH)
VHH: QVQLQESGGGLVQPGGSLRLSCATSANRFNINVMGWYRQAPGQQRELVATINIGGSTDYADSVKGRFTISRDNAKNTVYLQLSDLKPEDTAVYYCNVKLRVSGPTGPNVYWGQGTQVTVSS
B14: EPL10 (VHH)
VHH: QVQLQESGGGLVQAGGSLRLSCAASGSVFRANVMGWYRQAPGKQHELVARIDPGGTTTYADPVKGRFTISRDNAKKTVYLQMNSLKPDDTAVYYCNAIILLSGGPKDYWGQGTQVTVSS
B15: EPL117 (VHH)
VHH: QVQLQESGGGLVQAGGSLRLSCAASGNIVRMTNMAWYRQAPGKQREFVATISAGGSTTYVDSVKDRFTISRDNTKNTVYLQMNYLKPEDTAVYYCATGSILTNRGAIPGSWGHGTQVTVSS
B16: EPL138 (VHH)
VHH: B6 VHH with G35D, F37Y, S40F, L47S, V48I, V51I, D55G, V100L, Y109N
B17: EPL97 (VHH)
VHH: QVQLQESGGGLVQAGGSLRLSCAASGIIFRGTTMGWFRQAPGKQRESVASISPLGTTSYSGSVEGRFTVSRDNAKNTLFLQMNSLKSEDTAVYYCNAIQVTNVGPRVYWGQGTQVTVSS
B18: EPL31 (VHH)
VHH: QVQLQESGGGLVHTGGSLRLSCAASGDTFLRYAMGWFRQAPGKEREFVAAITWNGGNTDYAGSLKGRFTISRDNTKNTVYLQMNSLKPEDTAVYYCAADLTFGLASSHYQYDYWGQGTQVTVSS
B19: EPL55 (VHH)
VHH: B18 VHH with H13Q, T14A
B20: EPL57 (VHH)
VHH: B18 VHH with A24F, G62D, K87R
B21: EPL136 (VHH)
VHH: B18 VHH with H13Q, T14P
B22: EPL152 (VHH)
VHH: QVQLQESGGGLVQAGGSLRLSCVHSGSIFRASTMAWYRQAPGKQRELVAQIMSGGGTNYAGSVKGRFTISRDNANNTVYLQMNSLKPEDTAVYYCNAAQITSWGPKVYWGQGTQVTVSS
B23: EPL74 (VHH)
VHH: QVQLQESGGGLVQAGGSLRLSCAASGSIFGINAMGWYRQAPGKQRESVAFITIGGNTNYLDSVKGRFTISRDNAKNTVYLQMNGLKPEDTAVYYCNTNPPLILTAGGLYWGQGTQVTVSS
B24: EPL83 (VHH)
VHH: QVQLQESGGGLVQAGGSLRLSCAVSGSIFSLNTLAWYRQAPGRQRDLIARITGGGTTVYADSVKGRFTISRDNAKNTVYLQMNSLKPEDTAVYYCNLMVRHPSGSTYEYWGQGTQVTVSS
B25: EPL58 (VHH)
VHH: QVQLQESGGGLVQAGGSLRLSCAASGPIFSDTIRTMGWYRQAAGKQRELVATIASFPSRTNYVDSVKGRFTISRDIAKNTVYLQMDSLKPEDTAVYYCNVDLASIPTKTYWGQGTQVTVSS
B26: EPL86 (VHH)
VHH: QVQLQESGGGLVQPGGSLRLSCAASGFTFSDWAMSWVRQAPGKGLEWVSGIHYGDHTTHYADFVKGRFTISRDDAKNTLYLQMNSLKPEDTAVYYCARGSTKGQGTQVTVSS
B27: EPL153 (VHH)
VHH: B26 VHH with G50S, A97E, R98K, S100T, K102R
B28: EPL15 (VHH)
VHH: QVQLQESGGGSVLAGGSLRLSCAASGFTFSSYYMSWVRQAPGKGLEWVSGIHYTGDWTNYADSVKGRFTISRDNAKNELYLEMNNLKPEDTAVYYCARGSDKGQGTQVTVSS
B29: EPL34 (VHH)
VHH: B28 VHH with L13Q
B30: EPL109 (VHH)
VHH: QVQLQESGGGLVQPGGSLRLSCASSGFTLDDYTIGWFRQAPGKEREGVSCISRRDDSTYYADSVKGRFTISRDNAKNTVDLQMISLRPEDTAVYYCAATPRSYTLRCLGKFDFQGQGTQVTVSS

target: T1, cynomolgus EpCAM protein; assay: colorimetric ELISA
Text: (§1) A phage display library for expression of heavy variable antibody domains was constructed from circulating B cells. See van der Linden, de Geus, Stok, Bos, van Wassenaar, Verrips, and Frenken. 2000. J Immunol Methods 240:185-195.

Cynomolgus EpCAM/Control | Binder
24 | B1
27 | B2
5 | B3
11 | B4
4 | B5
4 | B6
4 | B7
10 | B8
34 | B9
4 | B10
8 | B11
4 | B12
11 | B13
9 | B14
3 | B15
3 | B16
5 | B17
6 | B18
7 | B19
27 | B20
13 | B21
4 | B22
5 | B23
2 | B24
4 | B25
31 | B26
21 | B27
35 | B28
36 | B29
2 | B30

target: T2, human EpCAM protein; assay: colorimetric ELISA
Text: as §1

Human EpCAM/Control | Binder
15 | B1
13 | B2
4 | B3
5 | B4
5 | B5
5 | B6
5 | B7
10 | B8
7 | B9
6 | B10
12 | B11
8 | B12
17 | B13
12 | B14
4 | B15
3 | B16
8 | B17
7 | B18
5 | B19
14 | B20
9 | B21
4 | B22
10 | B23
3 | B24
8 | B25
8 | B26
31 | B27
8 | B28
10 | B29
5 | B30
